{"source": "patent US20210179715A1", "about": "(published 2021)", "binders": {"B1": {"name": "hu6E10.K1-5.V4-4 (antibody, V domains shown)", "VH": "EQQLQESGPGLVKPPGTLSLTCAVSGLSLSTNSINWVRQPPGKGLEWIGYIYHGDGIADYASWAKGRFTISKDSSKTQVSLKLSSVTAADTAVYFCASGAGYSLFTLWGPGTLVTVSS", "VL": "DAQLTQSPSTLSASVGDRVTITCQSSESVWHNNWLAWFQQKPGKRPKLLIYGASTLASGVPSRFSGSGSGTEFTLTISSLQPDDFATYYCAGGYSSSDAHVFGGGTKVEIK"}, "B2": {"name": "hu6E10.K1-5.V3-48 (antibody, V domains shown)", "VH": "EQQLVESGGGLVQPGGSLRLSCAVSGLSLSTNSINWVRQAPGKGLEWIGYIYHGDGIADYASWAKGRFTISKDSAKNSVYLQMNSLRAEDTAVYFCASGAGYSLFTLWGPGTLVTVSS", "VL": "B1 VL"}, "B3": {"name": "hu6E10.K1-5.V3-53 (L1H1) (antibody, V domains shown)", "VH": "B2 VH with V12I, A75S, S78T", "VL": "B1 VL"}, "B4": {"name": "hu6E10.K3-20.V4-4 (antibody, V domains shown)", "VH": "B1 VH", "VL": "EAVLTQSPGTLSLSPGERATLSCQSSESVWHNNWLAWFQQKPGQRPRLLIYGASTLASGVPDRFSGSGSGTDFTLTISRLEPEDFAVYYCAGGYSSSDAHVFGGGTKVEIK"}, "B5": {"name": "hu6E10.K4-1.V4-4 (antibody, V domains shown)", "VH": "B1 VH", "VL": "DAVLTQSPDSLAVSLGERATINCQSSESVWHNNWLAWFQQKPGQRPKLLIYGASTLASGVPDRFSGSGSGTDFTLTISSLQAEDVAVYYCAGGYSSSDAHVFGGGTKVEIK"}, "B6": {"name": "1G4 Fab (Fab, V domains shown)", "VH": "EVQLVQSGAEVKKPGASVKVSCKASGYTFTTYVMHWVRQAPGQGLEWMGYINPYNDGTKYNEKFKGRVTMTRDTSISTAYMELSRLRSDDTAVYYCGRRNFDYWGQGTLVTVSS", "VL": "DIVMTQSPDSLAVSLGERATINCKSSQSLLLSGNQENYLAWHQQKPGQPPKTLITWASTRISGVPDRFSGSGSGTDFTLTISSLQAEDVAVYYCQQSYSAPYTFGGGTKVEIKR"}, "B7": {"name": "LY6G6D (other)", "chain": "NRMRCYNCGGSPSSSCKEAVTTCGEGRPQPGLEQIKLPGNPPVTLIHQHPACVAAHHCNQVETESVGDVTYPAHRDCYLGDLCNS"}, "B8": {"name": "Ly6G6D (other)", "chain": "B7 chain"}, "B9": {"name": "Ly6G6D (Fc fusion)", "chain": "B7 chain"}, "B10": {"name": "hu6E10.K3-20.V3-53 (L1H1) (antibody, V domains shown)", "VH": "B2 VH with V12I, A75S, S78T", "VL": "B4 VL"}, "B11": {"name": "hu6E10.K4-1.V3-48 (antibody, V domains shown)", "VH": "B2 VH", "VL": "B5 VL"}, "B12": {"name": "hu6E10.K3-20.V3-48 (antibody, V domains shown)", "VH": "B2 VH", "VL": "B4 VL"}, "B13": {"name": "hu6E10.K4-1.V3-53 (antibody, V domains shown)", "VH": "B2 VH with V12I, A75S, S78T", "VL": "B5 VL"}, "B14": {"name": "rb20A12.IA (C35I-C50A) chimeric Fab (Fab, V domains shown)", "VH": "QQQLEESGGDLVKPGASLTLTCTASGFDFVNNAMIWVRQAPGKGLEWIAALSFADNTAYYATWASGRFTISKISSTTVTLRMTSLTGADTATYFCMRGDLWGPGTLVTVSS", "VL": "DIVMTQTPSSVSAAVGGTVTINCQASESITRYLNWYQQKPGQPPKLLIYDASKLPSGVPSRFKGSGSGTQFTLTTSDLECADAATYYCQSTSFRGRSYNNTFGGGTEVVVK"}}, "key": {"human Ly6G6D polypeptide": {"biological_target": "T1, human Ly6G6D polypeptide (UniProt O95868 20-104)", "T1 chain": "B7 chain", "test": "BIAcore"}, "human LY6G6D-Fc [1]": {"biological_target": "T2, human LY6G6D-Fc (UniProt O95868 20-104)", "T2 chain": "B7 chain", "test": "BIAcore; 37 C"}, "Chimeric 1G4": {"biological_target": "Chimeric 1G4", "test": "Biacore"}, "ANT": {"biological_target": "ANT", "test": "BIAcore"}, "SNV": {"biological_target": "SNV", "test": "BIAcore"}, "QNV": {"biological_target": "QNV", "test": "BIAcore"}, "NNA": {"biological_target": "NNA", "test": "BIAcore"}, "QNT": {"biological_target": "QNT", "test": "BIAcore"}, "SNT": {"biological_target": "SNT", "test": "BIAcore"}, "SNA": {"biological_target": "SNA", "test": "BIAcore"}, "GNT": {"biological_target": "GNT", "test": "BIAcore"}, "Parental NNT": {"biological_target": "Parental NNT", "test": "BIAcore"}, "NNV": {"biological_target": "NNV", "test": "BIAcore"}, "SS": {"biological_target": "SS", "test": "BIAcore"}, "IS": {"biological_target": "IS", "test": "BIAcore"}, "SA": {"biological_target": "SA", "test": "BIAcore"}, "[2]": {"biological_target": "hu.20A12.IA.SNA.H12(V3-23).L2(K1-5)", "test": "BIAcore; 37 C"}, "[3]": {"biological_target": "hu.20A12.IA.GNT.H12(V3-23).L2(K1-5)", "test": "BIAcore; 37 C"}, "[4]": {"biological_target": "hu.20A12.IA.QNV.H12(V3-23).L2(K1-5)", "test": "BIAcore; 37 C"}, "4H7": {"biological_target": "4H7", "test": "BIAcore; 37 C"}, "human LY6G6D-Fc [5]": {"biological_target": "T2, human LY6G6D-Fc", "test": "BIAcore; 37 C"}}, "note": "Substitutions are numbered along the chain they refer to. In names and notes the source's numbering stands. Like-named read-outs stand apart in the source and are kept apart here."}
{"binder": "B1", "values": [{"measurement": "Kd", "setting": "human Ly6G6D polypeptide", "result": 3.34, "unit": "nM"}]}
{"binder": "B2", "values": [{"measurement": "Kd", "setting": "human Ly6G6D polypeptide", "result": 1.03, "unit": "nM"}]}
{"binder": "B3", "values": [{"measurement": "Kd", "setting": "human Ly6G6D polypeptide", "result": 1.63, "unit": "nM"}]}
{"binder": "B4", "values": [{"measurement": "Kd", "setting": "human Ly6G6D polypeptide", "result": 3.11, "unit": "nM"}]}
{"binder": "B5", "values": [{"measurement": "Kd", "setting": "human Ly6G6D polypeptide", "result": 3.6, "unit": "nM"}]}
{"binder": "B6", "values": [{"measurement": "Kd", "setting": "human LY6G6D-Fc [1]", "result": 1.45, "unit": "nM"}]}
{"binder": "B7", "values": [{"measurement": "Kd", "setting": "Chimeric 1G4", "result": 2.7, "unit": "nM"}, {"measurement": "Kd", "setting": "ANT", "result": 0.26, "unit": "nM"}, {"measurement": "Kd", "setting": "SNV", "result": 0.23, "unit": "nM"}, {"measurement": "Kd", "setting": "QNV", "result": 0.22, "unit": "nM"}, {"measurement": "Kd", "setting": "NNA", "result": 0.26, "unit": "nM"}, {"measurement": "Kd", "setting": "QNT", "result": 0.28, "unit": "nM"}, {"measurement": "Kd", "setting": "SNT", "result": 0.25, "unit": "nM"}, {"measurement": "Kd", "setting": "SNA", "result": 0.27, "unit": "nM"}, {"measurement": "Kd", "setting": "GNT", "result": 0.34, "unit": "nM"}, {"measurement": "Kd", "setting": "Parental NNT", "result": 0.43, "unit": "nM"}, {"measurement": "Kd", "setting": "NNV", "result": 0.22, "unit": "nM"}]}
{"binder": "B8", "values": [{"measurement": "Kd", "setting": "SS", "result": 2.7, "unit": "nM"}, {"measurement": "Kd", "setting": "IS", "result": 1.26, "unit": "nM"}, {"measurement": "Kd", "setting": "SA", "result": 2.74, "unit": "nM"}]}
{"binder": "B9", "values": [{"measurement": "Kd", "setting": "[2]", "result": 0.105, "unit": "nM"}, {"measurement": "Kd", "setting": "[3]", "result": 0.122, "unit": "nM"}, {"measurement": "Kd", "setting": "[4]", "result": 0.0335, "unit": "nM"}, {"measurement": "Kd", "setting": "4H7", "result": 0.36, "unit": "nM"}]}
{"binder": "B10", "values": [{"measurement": "Kd", "setting": "human Ly6G6D polypeptide", "result": 1.3, "unit": "nM"}]}
{"binder": "B11", "values": [{"measurement": "Kd", "setting": "human Ly6G6D polypeptide", "result": 1.41, "unit": "nM"}]}
{"binder": "B12", "values": [{"measurement": "Kd", "setting": "human Ly6G6D polypeptide", "result": 1.3, "unit": "nM"}]}
{"binder": "B13", "values": [{"measurement": "Kd", "setting": "human Ly6G6D polypeptide", "result": 1.66, "unit": "nM"}]}
{"binder": "B14", "values": [{"measurement": "Kd", "setting": "human LY6G6D-Fc [5]", "result": 0.704, "unit": "nM"}]}
